According to article PMC8615521, “Mitochondria-Mediated Apoptosis of HCC Cells Triggered by Knockdown of Glutamate Dehydrogenase 1: Perspective for Its Inhibition through Quercetin and Permethylated Anigopreissin A” (Biomedicines, 2021):

System: O=C(O)CCC(=O)C(=O)O
Test: purified protein
Details: NADH

GDH1 from bovine liver (glutamate dehydrogenase 1) (Bos taurus), sequence (chain, as listed by the source): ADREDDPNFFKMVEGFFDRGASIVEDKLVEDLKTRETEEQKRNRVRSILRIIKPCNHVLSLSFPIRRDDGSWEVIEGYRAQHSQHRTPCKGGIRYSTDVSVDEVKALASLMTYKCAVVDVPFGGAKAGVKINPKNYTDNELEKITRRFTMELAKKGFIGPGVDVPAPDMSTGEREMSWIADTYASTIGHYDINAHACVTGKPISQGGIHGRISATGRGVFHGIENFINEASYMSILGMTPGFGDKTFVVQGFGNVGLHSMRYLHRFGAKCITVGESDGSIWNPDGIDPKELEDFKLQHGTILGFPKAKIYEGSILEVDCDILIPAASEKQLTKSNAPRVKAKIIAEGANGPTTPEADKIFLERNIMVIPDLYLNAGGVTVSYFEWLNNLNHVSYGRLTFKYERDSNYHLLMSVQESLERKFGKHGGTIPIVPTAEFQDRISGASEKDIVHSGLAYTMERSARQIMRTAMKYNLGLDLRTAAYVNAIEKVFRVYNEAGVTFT

For “GDH1 from bovine liver (glutamate dehydrogenase 1) (Bos taurus)”, the Km was 840 ± 20 µM.
